Data taken from patent publication US20150004190A1 (INSTITUT NATIONAL DE LA SANTE ET DE LA RECHERCHE MEDICALE …, published 2015).

B1: 2F5 IgA2 (antibody, V domains shown)
VH: RITLKESGPPLVKPTQTLTLTCSFSGFSLSDFGVGVGWIRQPPGKALEWLAIIYSDDDKRYSPSLNTRLTITKDTSKNQVVLVMTRVSPVDTATYFCAHRRGPTTLFGVPIARGPVNAMDVWGQGITVTI
VL: ALQLTQSPSSLSASVGDRITITCRASQGVTSALAWYRQKPGSPPQLLIYDASSLESGVPSRFSGSGSGTEFTLTISTLRPEDFATYYCQQLHFYPHTFGGGTRVDVR
B2: 2F5 IgG1 (antibody, V domains shown)
VH: B1 VH
VL: B1 VL

Key:
Experiment in all cases: cell-based or functional assay
[1] = target: HIV-1 JR-CSF envelope (on virions) (HIV-1 JR-CSF (clade B, R5 tropic), UniProt P20871 32-848)
[2] = target: T1, HIV-1 R5 tropic QH0692.42 envelope (on pseudovirus) (HIV-1 QH0692.42)
[3] = target: T1, HIV-1 R5 tropic QH0692.42 envelope (on …); remark: listed apart in the source

| Binder | IC50 times lower than 2F5 IgG1, CEM-CCR5+ neutralization [1] [fold] | IC99 times lower than 2F5 IgG1, CEM-CCR5+ neutralization [1] [fold] | IC50 times lower than that of 2F5 IgG1, TZM-bl assay [2] [fold] | IC90 times lower than that of 2F5 IgG1, TZM-bl assay [2] [fold] | IC50%, neutralization of envelope pseudotyped HIV-1 in TZM-bl assay (luciferase) [3] [nM] |
| --- | --- | --- | --- | --- | --- |
| B1 | 33 | 20 | 8.33 | 23.8 | 0.024 |
| B2 |  |  |  |  | 0.2 |
